Tested on: prothrombin

## recombinant prothrombin activating protease (rLopap)
  prothrombin activation (thrombin formation followed with S-2238 chromogenic substrate): The native Lopap and the rLopap are able to activate prothrombin using preferentially the S-2238 substrate
  prothrombin activation, compared with native Lopap: in same concentrations, rLopap is less efficient
  prothrombin hydrolysis (SDS-PAGE of fragments; prothrombin 10 uM, rLOPAP 2 uM): Under non-reduced conditions bands of 72 kDa (prothrombin), of 52 kDa probably corresponding to the prothrombin F1.2, one of 36 kDa corresponding to the thrombin or to the prethrombin 2, and one of 24 kDa corresponding to the fragment 1 (F1) of the prothrombin could be observed
  prothrombin hydrolysis in presence and absence of Factor Va (SDS-PAGE): The same hydrolysis standards were obtained in presence and in absence of the Factor Va

Reference: US20080267944
